According to the supplement of paper PMC9170038:

Tested on: MS2 coat protein
Assay: apparent KD of MS2 coat protein; designed switch direction (-1 OFF switch, 1 ON switch): -1; higher = weaker reporter binding
Method in brief: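 Transcription of designed RNA switches on Illumina chips was done by stalled E. coli RNA polymerase. SNAP-549-labelled MS2 coat protein was then titrated in doubling steps from 0.7 or 1.5 nM to 3 µM, with steps of 0.8–1.5 h at the lowest and 10–20 min at the highest concentration. The per-design median over clusters of curve-fitted normalised fluorescence is reported as apparent KD.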

[1] = input ligand: microRNA oligo, concentration not stated
[2] = Eterna round: R95, input ligand: FMN 200 uM
[3] = Eterna round: R95, input ligand: microRNA oligo, concentration not stated
[4] = Eterna round: R95, input ligand: none

Row | Sequence | apparent KD of MS2 coat protein (input ligand: FMN 200 uM) [nM] | apparent KD of MS2 coat protein [1] [nM] | apparent KD of MS2 coat protein (input ligand: none) [nM] | apparent KD of MS2 coat protein [2] [nM] | apparent KD of MS2 coat protein [3] [nM] | apparent KD of MS2 coat protein [4] [nM]
1 | CUAAAUCAUGUAGGAUAUGCAUAGCGAAGCUAUGCAGAAGGACAUGAGGAUCACCCAUGUUCUUCCGUCUGCGUACAGACGGAA [Mat - Exclusion NG 1 - Mod of JL - D30] (Eterna round: R96, puzzle: Exclusion NG 1) | 268 | 32.4 | 33.5 | – | – | –
2 | GGUCAUAGGUAAGGAUAUGAAGAUCUGGUGGUGACAUGAGGAUCACCCAUGUGAAAACGAUGAGAUCAGAAGGUACAAUAUGAA [AK ExNG2-4.1] (Eterna round: R96, puzzle: Exclusion NG 2) | 72.7 | 49.1 | 86.4 | – | – | –
3 | GUCUGGCUAGGAUAUACAGUGUCCACAAGUUAGUUACCCUAACAUGAGGAUCACCCAUGUAGAAGGAGUGAGAA [Revebeed] (Eterna round: R96, puzzle: Exclusion 2) | 355 | 34.7 | 45.4 | – | – | –
4 | AGCUUUUUGCUCGUCUUAUACAUGAGGAUCACCCAUGUAUUGGACCACAUCGAUAGAUGUGGACCAAGAAGCAUGGG [Omdei Mir OFFv1 C1] (Eterna round: R97, puzzle: Sensor, turn-off variant 1) | 195 | – | 109 | – | – | –
5 | AAGAUGAGACAGGAUAUCCACAAAAUCUUGUCAGGAGAAGGGUCUACAUGAGGAUCACCCAUGUGAUUCUUGAA [Inriinvele] (puzzle: Exclusion 6) | – | – | – | 19.1 | 14.6 | 18.1
6 | AAGUCGAGCGUGAGGAUAUCGUCCGAACGACCGAACGAGAAGGCACAUGAGGAUCACCCAUGUGAUUCAGCUCA [Brourd's EX4 #48] (Eterna round: R97, puzzle: Brourd's mod of Exclusion 4) | 16.8 | – | 14.2 | – | – | –
7 | UUGUUAUAUGUAGGAUAUGCAUAUUAUUAUUAUGCAGAAGGACAUGAGGAUCACCCAUGUAUAUUAUUAUUAUAUAUUAUAUAU [Title] (Eterna round: R96, puzzle: Exclusion NG 1) | – | 22.4 | – | – | – | –
8 | UAGAUGGGAGGAUAUACGUAGAUGCAGGUUCGUGUGGUGCUACAUGAGGAUCACCCAUGUAGAAGGCCCGUCUU [JL-ex2-2.29 Mayanne mod] (Eterna round: R96, puzzle: Exclusion 2) | 69.4 | 14.1 | 18.4 | – | – | –
9 | UAUCCACAUGAGGAUCACCCAUGUGAGGAUAUGAUACUAUGUACUUCGGUACAUAGUAUCAGAAGGCACAGGUC [Ex1-3: 57] (puzzle: Exclusion 1) | – | – | – | – | 20.3 | –
10 | UUUUUCGAACAAGCUUCGAACAUGAGGAUCACCCAUGUAGGUAGAUUUGAGUAGGUUUGGAAGUAAGCUCGUCUUAU [JR_SV3TOV1_Sub081] (puzzle: Sensor v3, turn-off variant 1) | – | – | – | 416 | 561 | 592
11 | UGUGCGUAUGUGAGGAUAUGCUGGUCCUUGGAUCGGCAGAAGGCACAUGAGGAUCACCCAUGUGGUGUCGUUCC [salish99_Bmod_ex4_095] (puzzle: Brourd's mod of Exclusion 4) | – | – | – | – | 102 | –
12 | UGCUACGGAGGAUAUACAUGAGGAUCACCCAUGUGAUAGAUUAUCGCGAGAGCGUAAUGUAGAAGGCCGUAGCU [jl-ex3-4.12 jl mod] (Eterna round: R97, puzzle: Exclusion 3) | 506 | – | 56 | – | – | –
13 | AAGUAGUGUGUGAGGAUAUUGGUGGAAUGACACAUUAAGAAGGCACAUGAGGAUCACCCAUGUGGGUUGACACG [Brourd's EX4 #20] (Eterna round: R97, puzzle: Brourd's mod of Exclusion 4) | 282 | – | 47 | – | – | –
14 | ACCUCUGAGGAGGAUAUACAGUGCGAAAGGACAGUAGAAGGCUUCACAUGAGGAUCACCCAUGUCGAAUAGUGA [EX6 #79] (Eterna round: R97, puzzle: Exclusion 6) | 86.1 | – | 58.7 | – | – | –
15 | GCACGGAGUGUAGGAUAUCUGUGCGAUUAGCUCAGAGAAGGACACAUGAGGAUCACCCAUGUGUACCUCAACAUUAAUCCGUGC [Eli exng1 - 075] (Eterna round: R96, puzzle: Exclusion NG 1) | 10.1 | 6.62 | 10.1 | – | – | –
16 | AAGCCUCAGGUUAGGAUAUACGCCUGGCCGAAGGAGUAGAAGGGACAUGAGGAUCACCCAUGUGGGUUCAAAAG [Atanvege] (puzzle: Brourd's mod of Exclusion 4) | – | – | – | 52.5 | 43 | 44.9
17 | CCCACCAGAGGAUAUGCGCAUAGAUCAGACUUUGUUUCUGAACAUGAGGAUCACCCAUGUAGAAGGCUGUAACC [Ex2 #87] (Eterna round: R97, puzzle: Exclusion 2) | 25.2 | – | 24.3 | – | – | –
18 | UCCGGACAUGAGGAUCACCCAUGUUAGGAUAUCUGAGGUGUGCCAGGAUCCUGGGCCCAGAGAAGGAAUAUGGC [Eternabot (L2) Solution 28] (Eterna round: R97, puzzle: Exclusion 1) | 21.7 | – | 19.8 | – | – | –
19 | CUUGUGUCAGGAUAUGCUAAGUAUUCGUUUUACGCGUCUAGGCAGAAGGGACAUGAGGAUCACCCAUGUAACGC [EX4 B.30] (Eterna round: R97, puzzle: Exclusion 4) | 172 | – | 133 | – | – | –
20 | CUGAGCAGACGGAGAUCCAACAUGAGGAUCACCCAUGUCUCAAAAGCUUUUUGCUUGUCUUACCCUCCUCUGUUCUC [Isceeren] (puzzle: Sensor v3, turn-off variant 1) | – | – | – | 18.1 | 122 | 15.7
21 | GGUGAGCUAGGAUAUGCUUUGGGAACGCAUUCCUUCGAUAAACUUGAGGAUCACCCAAGUAGAAGGAGCUUGCC [salish99_ex2_r4_029] (Eterna round: R97, puzzle: Exclusion 2) | 158 | – | 34 | – | – | –
22 | CUAACAUGCUGGUGAUCAUACAUGAGGAUCACCCAUGUAACAAGCUUUUUGUUCGUCUUAAUUUAAUUGAUUACUAG [Stov1/8-B3] (Eterna round: R97, puzzle: Sensor, turn-off variant 1) | 177 | – | 254 | – | – | –
23 | UGUGCGUAUGUGAGGAUAUGCUGGUCCUUGGCUCGGCAGAAGGCACAUGAGGAUCACCCAUGUGGUGUCGUACC [salish99_Bmod_ex4_060] (puzzle: Brourd's mod of Exclusion 4) | – | – | – | – | 33.1 | –
24 | ACAUGAGGAUCACCCAUGUGACCACAAUGGCUGAUGUAACAACAGGAUAUGCGUGAAUAUCUAACGCAGAAGGGUUAUGACUGG [Deportation 60 - Jieux - Exclusion NG 3] (Eterna round: R96, puzzle: Exclusion NG 3) | 73.5 | 71.6 | 65.4 | – | – | –
25 | CACUUACAUGAGGAUCACCCAUGUGAGGAUAUCGUGACCAGACGAGAAGUCUAUGUCACGAGAAGGCACUUGGG [Exclusion 1 (Mod 2 solution 97 by Eternabot)] (Eterna round: R97, puzzle: Exclusion 1) | 114 | – | 314 | – | – | –
